{"source": "paper PMC3039444", "origin": "cited, not measured here", "molecular_target": "Ube2g2 (Homo sapiens) (UniProt P60604)", "sequence (P60604 2-165)": "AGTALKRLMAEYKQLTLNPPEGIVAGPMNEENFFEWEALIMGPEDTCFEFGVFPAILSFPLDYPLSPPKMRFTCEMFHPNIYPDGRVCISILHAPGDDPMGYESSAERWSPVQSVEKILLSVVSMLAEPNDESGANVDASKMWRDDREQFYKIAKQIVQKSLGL"}
{"substance": "gp78 G2BR (from UniProt Q9UKV5)", "values": [{"measurement": "Kd", "result": 0.021, "unit": "µM"}]}
